Results as given in patent US20100041597A1 (published 2010).

T1: PKC-ε (purified isoform) (Homo sapiens (Human), UniProt Q02156 1-737)
T1 construct: also called PKC-epsilon; PKCepsilon
T1 sequence: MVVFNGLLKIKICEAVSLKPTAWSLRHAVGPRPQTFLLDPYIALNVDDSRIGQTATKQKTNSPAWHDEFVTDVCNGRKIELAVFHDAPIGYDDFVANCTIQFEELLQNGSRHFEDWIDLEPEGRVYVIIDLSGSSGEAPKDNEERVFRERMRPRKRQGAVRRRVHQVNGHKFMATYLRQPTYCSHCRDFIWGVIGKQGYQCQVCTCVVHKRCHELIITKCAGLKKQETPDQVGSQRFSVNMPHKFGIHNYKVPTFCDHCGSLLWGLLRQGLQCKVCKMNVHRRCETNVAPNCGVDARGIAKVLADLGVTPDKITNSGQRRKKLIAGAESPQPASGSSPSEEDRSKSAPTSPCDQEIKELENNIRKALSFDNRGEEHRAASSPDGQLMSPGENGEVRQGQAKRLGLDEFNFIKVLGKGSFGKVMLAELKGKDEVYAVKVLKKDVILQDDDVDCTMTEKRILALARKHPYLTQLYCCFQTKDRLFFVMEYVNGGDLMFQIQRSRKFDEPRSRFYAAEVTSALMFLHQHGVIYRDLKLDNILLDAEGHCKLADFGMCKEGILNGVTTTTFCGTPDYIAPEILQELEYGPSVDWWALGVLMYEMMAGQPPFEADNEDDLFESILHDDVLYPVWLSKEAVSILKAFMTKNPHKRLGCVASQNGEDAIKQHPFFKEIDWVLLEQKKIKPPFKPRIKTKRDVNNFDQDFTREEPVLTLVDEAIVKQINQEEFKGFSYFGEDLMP

T2: PKC-ζ (purified isoform) (Homo sapiens (Human), UniProt Q05513 1-592)
T2 construct: also called PKC-zeta; PKCzeta
T2 sequence: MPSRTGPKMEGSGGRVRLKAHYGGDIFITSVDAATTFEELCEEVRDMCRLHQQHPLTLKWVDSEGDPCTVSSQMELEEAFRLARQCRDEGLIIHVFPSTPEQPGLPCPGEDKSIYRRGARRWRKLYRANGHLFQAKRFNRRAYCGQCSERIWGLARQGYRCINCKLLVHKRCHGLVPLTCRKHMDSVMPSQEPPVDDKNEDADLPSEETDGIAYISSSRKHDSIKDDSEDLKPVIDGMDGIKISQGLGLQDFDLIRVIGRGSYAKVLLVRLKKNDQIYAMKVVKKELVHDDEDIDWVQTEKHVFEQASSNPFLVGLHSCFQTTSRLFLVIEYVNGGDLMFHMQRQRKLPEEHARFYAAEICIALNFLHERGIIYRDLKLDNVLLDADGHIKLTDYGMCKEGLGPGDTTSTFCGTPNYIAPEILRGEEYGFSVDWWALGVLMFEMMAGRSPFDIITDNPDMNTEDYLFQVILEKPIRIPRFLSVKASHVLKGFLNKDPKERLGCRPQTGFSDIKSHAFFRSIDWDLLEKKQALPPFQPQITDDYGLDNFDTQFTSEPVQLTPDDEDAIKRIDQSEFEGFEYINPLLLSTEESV

B1: PRE 3 (peptide)
peptide: Ac-AKGIQEVKGGDAQNLIGISI-NH2
notes: Synthetic peptide; also called peptide PRE 3
B2: PRE 4 (peptide)
peptide: Ac-KDAQNLIGISI-NH2
notes: Synthetic peptide; also called peptide PRE 4
B3: PRE 11 (peptide)
peptide: Ac-RDAQNLIGISI-NH2
notes: Synthetic peptide; also called peptide PRE 11
B4: PRE 7 (peptide)
peptide: Ac-ISIGILQNADK-NH2
notes: Synthetic peptide (retro form of PRE 4); also called peptide PRE 7
B5: PRE 6 (peptide)
peptide: Ac-KDANQLIGISI-NH2
notes: Synthetic peptide; also called peptide PRE 6
B6: PRE 12 (peptide)
peptide: Ac-KDAQNLI-NH2
notes: Synthetic peptide; also called peptide PRE 12; Ac-KDAQNLI-NH2
B7: PRE 13 (peptide)
peptide: Ac-RDAQNLI-NH2
notes: Synthetic peptide; also called peptide PRE 13; Ac-RDAQNLI-NH2

What was measured:
[1] = target: T3, PKC-α (purified isoform) (Homo sapiens (Human), UniProt P17252 2-672); experiment: competitive ELISA on purified PKC-α vs anti-PKC-α Ab; PRE 100 µM
T3 construct: also called PKC-alpha; PKCalpha
Procedure: (§1) Greiner 96 well ELISA plates were coated with the appropriate PKC isoform diluted in PBSN (PBS with Calcium/Magnesium+0.05% Sodium azide w/w). 50 μL/well at 250 ng/mL was used. Control wells contained PBSN only. Plates were incubated overnight at 4° C.
After incubation, 5 μL of 1.1:400 anti-PKC (isoform specific antibody) was added per well (to provide a final concentration of 1:4000). For PKC-epsilon, 1.1:800 dilution was used and for PKC-zeta a 1.1:100 dilution was used due to high and low binding affinity, respectively. The plates were then incubated 1 h at room temperature, followed by washing with dH₂O as described above.
(§2) 50 μL of 1:1000 dilution of Alkaline Phosphatase (AP) conjugated antibody (anti-rabbit for all except zeta, which was anti-goat) was then added and the plate incubated for 1 h at room temperature. Washing with dH₂O was then repeated. Finally, 100 μL of pNPP solution in pNPP buffer (2 mM MgCl₂, 100 mM Sodium bicarbonate in water, pH 9.8) was added to all wells and incubated for 8 minutes for α, βI, βII ε, and ζ, or for 15-20 mins for […] (until sufficient coloration is observed). The reaction was stopped by addition of Stop solution (2N NaOH) and the absorbance at 405 nm was read on a Galaxy Plate reader.

[2] = target: T1, PKC-ε (purified isoform); experiment: competitive ELISA on purified PKC-ε vs anti-PKC-ε Ab; PRE 100 µM
Procedure: as §1
(§3) The plates were washed 3 times with 200 μL of dH₂O per well, then 100 μL of blocking solution was added per well and the plate incubated for 1 h at 37° C. The washing steps with dH₂O were repeated and 50 μL of the appropriate PRE solution (PRE stock solution [20 mM in DMSO] diluted in PBSN) was added and the plate incubated for 1 h at room temperature.
as §2

[3] = target: T3, PKC-α (purified isoform); experiment: competitive ELISA on purified PKC-α vs anti-PKC-α Ab; PRE 50 µM
Procedure: as §1, §3, §2

[4] = target: T4, PKC-βII (purified isoform) (Homo sapiens (Human), UniProt P05771 2-621); experiment: competitive ELISA on purified PKC-βII vs anti-PKC-βII Ab; PRE 200 µM
T4 construct: also called PKC-beta II
Procedure: as §1, §3, §2

[5] = target: T4, PKC-βII (purified isoform); experiment: competitive ELISA on purified PKC-βII vs anti-PKC-βII Ab; PRE 100 µM
Procedure: as §1, §3, §2

[6] = target: T2, PKC-ζ (purified isoform); experiment: summary grade, purified isoform ELISA

T4 sequence (P05771 other isoform, or with tags, fused parts or gaps limits assumed): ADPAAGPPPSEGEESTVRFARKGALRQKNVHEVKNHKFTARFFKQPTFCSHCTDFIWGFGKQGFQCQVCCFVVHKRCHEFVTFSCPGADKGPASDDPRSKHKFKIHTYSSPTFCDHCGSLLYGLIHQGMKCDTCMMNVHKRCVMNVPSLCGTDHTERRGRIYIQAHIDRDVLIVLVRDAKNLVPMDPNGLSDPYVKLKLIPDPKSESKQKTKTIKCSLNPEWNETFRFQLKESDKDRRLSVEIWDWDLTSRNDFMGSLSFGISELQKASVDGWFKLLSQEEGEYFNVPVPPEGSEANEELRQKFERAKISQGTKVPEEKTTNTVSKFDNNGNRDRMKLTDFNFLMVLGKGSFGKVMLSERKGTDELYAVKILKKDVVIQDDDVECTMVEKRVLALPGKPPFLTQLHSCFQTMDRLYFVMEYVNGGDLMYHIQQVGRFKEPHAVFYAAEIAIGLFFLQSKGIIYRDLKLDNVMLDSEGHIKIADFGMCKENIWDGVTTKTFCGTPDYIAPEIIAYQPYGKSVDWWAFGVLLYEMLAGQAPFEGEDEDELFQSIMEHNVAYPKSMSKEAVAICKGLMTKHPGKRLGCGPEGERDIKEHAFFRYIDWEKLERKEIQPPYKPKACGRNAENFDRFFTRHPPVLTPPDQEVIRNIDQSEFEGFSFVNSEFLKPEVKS

Row | Binder | binding capacity (%) [1] [%] | binding capacity (%) [2] [%] | binding capacity (%) [3] [%] | binding capacity (%) [4] [%] | binding capacity (%) [5] [%] | binding result [6]
1 | B1 | 26.5 | 31.5 | 17.5 |  |  | 
2 | B2 | 21.9 |  | 6.46 | 1.18 | 13.5 | 
3 | B3 | 5.96 | 13 | 0 |  |  | no binding (tested: 200 µM)
4 | B4 | 6.72 | 14 | 0 |  |  | 
5 | B5 |  |  |  | 0 | 0 | no binding (tested: 200 µM)
6 | B6 | 5.16 | 0.28 | 3.29 |  |  | 
7 | B7 |  | 0 |  | 0 | 1.63 | no binding (tested: 200 µM)
